In paper PMC11139899, “Structures of co-transcriptional RNA capping enzymes on paused transcription complex” (Nature Communications, 2024):

Target: Pol II stalk (RPB4-RPB7), S. scrofa (S. scrofa)
Experiment: cryo-EM structure; PEC-RNGTT: phosphorylated Pol II, DNA-RNA scaffold with 17 nt 5′-triphosphate RNA, DSIF, RNGTT, 100 μM GMPPNP, NELF added stepwise; purified and crosslinked by GraFix; NELF seen in an Up and a Down state
Details: both partners purified

binding result: binds
B1: RNA guanylyltransferase and 5′-phosphatase (RNGTT) (enzyme)
chain: not shown
notes: human RNGTT, full-length gene; TPase domain, linker, GTase domain with OB fold; Released from the IgG resin by on-column digestion; also called capping enzyme; CE; source: Expi293F, transfected, purified (IgG resin, on-column digestion, Mono Q); not shown: 4 × ProteinA, N-terminal, cleaved
